Target: the molecule itself
Assay: cryo-EM structure; purified MmIR dimer fraction (20 mM Hepes-Na pH 7.4, 150 mM NaCl, 0.03% DDM) mixed with synthesized S597-component-2 (S597-N20) at 1:4 (m:m), incubated half an hour, 4 °C, concentrated to 6 mg/ml

B1: full-length mouse insulin receptor, short isoform, with kinase-dead mutation D1122N and mutation Y962F (receptor, UniProt P15208 28-1372, looked up)
chain: HLYPGEVCPGMDIRNNLTRLHELENCSVIEGHLQILLMFKTRPEDFRDLSFPKLIMITDYLLLFRVYGLESLKDLFPNLTVIRGSRLFFNYALVIFEMVHLKELGLYNLMNITRGSVRIEKNNELCYLATIDWSRILDSVEDNYIVLNKDDNEECGDVCPGTAKGKTNCPATVINGQFVERCWTHSHCQKVCPTICKSHGCTAEGLCCHKECLGNCSEPDDPTKCVACRNFYLDGQCVETCPPPYYHFQDWRCVNFSFCQDLHFKCRNSRKPGCHQYVIHNNKCIPECPSGYTMNSSNLMCTPCLGPCPKVCQILEGEKTIDSVTSAQELRGCTVINGSLIINIRGGNNLAAELEANLGLIEEISGFLKIRRSYALVSLSFFRKLHLIRGETLEIGNYSFYALDNQNLRQLWDWSKHNLTITQGKLFFHYNPKLCLSEIHKMEEVSGTKGRQERNDIALKTNGDQASCENELLKFSFIRTSFDKILLRWEPYWPPDFRDLLGFMLFYKEAPYQNVTEFDGQDACGSNSWTVVDIDPPQRSNDPKSQTPSHPGWLMRGLKPWTQYAIFVKTLVTFSDERRTYGAKSDIIYVQTDATNPSVPLDPISVSNSSSQIILKWKPPSDPNGNITHYLVYWERQAEDSELFELDYCLKGLKLPSRTWSPPFESDDSQKHNQSEYDDSASECCSCPKTDSQILKELEESSFRKTFEDYLHNVVFVPRPSRKRRSLEEVGNVTATTLTLPDFPNVSSTIVPTSQEEHRPFEKVVNKESLVISGLRHFTGYRIELQACNQDSPDERCSVAAYVSARTMPEAKADDIVGPVTHEIFENNVVHLMWQEPKEPNGLIVLYEVSYRRYGDEELHLCVSRKHFALERGCRLRGLSPGNYSVRVRATSLAGNGSWTEPTYFYVTDYLDVPSNIAKIIIGPLIFVFLFSVVIGSIYLFLRKRQPDGPMGPLYASSNPEFLSASDVFPSSVYVPDEWEVPREKITLLRELGQGSFGMVYEGNAKDIIKGEAETRVAVKTVNESASLRERIEFLNEASVMKGFTCHHVVRLLGVVSKGQPTLVVMELMAHGDLKSHLRSLRPDAENNPGRPPPTLQEMIQMTAEIADGMAYLNAKKFVHRNLAARNCMVAHDFTVKIGDFGMTRDIYETDYYRKGGKGLLPVRWMSPESLKDGVFTASSDMWSFGVVLWEITSLAEQPYQGLSNEQVLKFVMDGGYLDPPDNCPERLTDLMRMCWQFNPKMRPTFLEIVNLLKDDLHPSFPEVSFFYSEENKAPESEELEMEFEDMENVPLDRSSHCQREEAGGREGGSSLSIKRTYDEHIPYTHMNGGKKNGRVLTLPRSNPS
notes: insulin receptor, mouse, short isoform (A isoform), full length; Disulfide-linked dimer; The proreceptor is written as one chain; An HRV-3C site lay between the receptor and Tsi3; also called MmIR; IR; source: FreeStyle 293-F cells (BacMam), purified (DDM extraction, Tse3 resin, HRV-3C elution, Superose 6; dimer fraction); not shown: Tsi3, C-terminal, cleaved
- binding result: binds

Source: PMC9508239 (Nature Communications, 2022)
